Measured values reported in publication PMC2785583 (The Journal of Biological Chemistry, 2009).

What was measured:
SDS-PAGE = biological target: the molecule itself; test: SDS-PAGE
[1] = biological target: Protein FAF (F. magna adhesion factor), recombinant, amino acids 28-616 (Finegoldia magna); test: SPR

Kd [1]: 4.9 nM
B1: Recombinant human MIG/CXCL9 (monokine induced by gamma-interferon) (ligand, UniProt Q07325 23-125, looked up)
chain: TPVVRKGRCSCISTNQGTIHLQSLKDLKQFAPSPSCEKIEIIATLKNGVQTCLNPDSADVKELIKKWEKQVSQKKKQKNGKKHQKKKVLKVRKSQRSRQKKTT
binding result (SDS-PAGE): binds
